The values that follow come from article PMC9616769, “Deconstruction of Neurotrypsin Reveals a Multi-factorially Regulated Activity Affecting Myotube Formation and Neuronal Excitability” (Molecular Neurobiology, 2022).

This data set deals with the molecule itself. The data set is described as follows: SEC-MALS; Protein KW.802.5 (Shodex) column, 1 mL/min, 50 mM TRIS/HCl, 500 mM NaCl, pH 8.0; protein conjugate analysis. For orientation: Size exclusion chromatography separates by hydrodynamic size, large species first.

B1: AGR-124 (human agrin y4z19, FS9-LG3 domains, Ala893-Pro2068) (domain or fragment)
chain: not shown
modifications: glycans (limited N-linked, presumably O-linked) contributing around 10% of the total mass
notes: human agrin y4z19, 9th FS domain to the last LG domain (FS9-LG3), Ala893-Pro2068; codon-optimized synthetic gene; Tag removed with TEV protease; also called agrin-like AGR-124 substrate; source: SFM-HEK293 suspension cells, transient transfection; purified from the medium (Ni-IMAC, heparin, SEC); not shown: 6xHis, N-terminal, cleaved
For the protein B1, the binding result is “binds”.
